Data set [1] can be described thus: Prevention of HFD-induced obesity, female mice. The format is in vivo, C57BL/6J female mice. The settings on record: 300U weekly. An excerpt:
FIG. 21 illustrates that concurrent treatment with 300U N-ABD094-rhArg (SEQ ID, NO: 50) [HFD(rhArg) group] once a week could effectively prevent HFD-induced obesity in C57BL/6J female mice. (A) Bodyweight of mice fed a HFD from 8 week old for 12 weeks, and currently treated with N-ABD094-rhArg or vehicle. Vehicle-treated female mice fed a LFD served as the lean control [LFD(vehicle) group]. (B) Weight of fat pad at main visceral (perigonadal, perirenal and mesenteric) and subcutaneous (inguinal) depots. *P<0.05, one-way ANOVA followed by Fisher's LSD. Data are expressed as mean±SEM, n=5 for each group.
FIG. 22 illustrates that concurrent treatment with 300U N-ABD094-rhArg (SEQ ID NO: 50) [HFD(rhArg) group] once a week could effectively prevent HFD-induced insulin resistance and glucose intolerance in C57BL/6J female mice. (A) Insulin tolerance test (ITT) conducted at 7 week after feeding a HFD. (B) Glucose tolerance test (GTT) conducted at 11 week after feeding a HFD. ITT and GTT results are expressed as area under the curve (AUC). *P<0.05, one-way ANOVA followed by Fisher's LSD. Data are expressed as mean±SEM, n=5 for each group.
After confirming the anti-obesity effect of N-ABD094-rhArg (SEQ ID NO: 50) on male mice, the effect of N-ABD094-rhArg (SEQ ID NO: 50) on female mice (n=5 in each group) was studied to determine if there was any sex difference.

The nature of data set [2]: LFD-fed mice treated for 8 months: anti-drug antibody and safety. The data set is classed as in vivo, C57BL/6J male mice. As for the experimental part: FIG. 56 illustrates that C57BL/6J male mice fed a LFD and received an intraperitoneal injection of 500U N-ABD094-rhArg (SEQ ID NO: 50) [LFD(rhArg) group] once a week for 8 months starting from 5 week old had developed non-neutralizing anti-drug antibody. (A) Using an ELISA assay, anti-rhArg antibodies, with an average antibody titer of 10^8, could be detected in the plasma of LFD-fed mice treated with N-ABD094-rhArg. (B) The plasma was incubated with 1,000U/mL N-ABD094-rhArg (rhArg*) for 1 hr followed by measurement of arginase activity. There was no reduction in arginase activity, showing that the antibodies generated in the animal against the drug were not neutralizing antibodies. Data are expressed as mean±SEM, n=3 for each group.
Generation of neutralizing antibodies may affect the pharmacodynamics, pharmacokinetic, stability and efficacy of a drug. To determine the immunogenic response, 8 week old C57BL/6J male mice fed a LFD received i.p. injection of 500U of N-ABD094-rhArg (SEQ ID NO: 50), or saline as vehicle control, at 7-day intervals for 8 months.
To assess the safety of long-term use, serum and urine samples from LFD-fed mice treated with N-ABD094-rhArg (SEQ ID NO: 50) for 8 months were collected for analysis of ALT and AST, which are commonly used biomarkers of liver damage, and serum creatinine and urine albumin/creatinine ratio for assessing kidney functions.

In data set [3] the test system is mouse 3T3-L1 preadipocytes. As to the kind of experiment: 3T3-L1 preadipocyte differentiation (oil red O, qRT-PCR). The format is cell-based. As for the experimental part:
FIG. 23 illustrates that arginine depletion by adding N-ABD094-rhArg (SEQ ID NO: 50) (rhArg), bovine arginase or native arginine deiminase (ADI) to the culture medium, or using arginine-free medium inhibited the differentiation of mouse 3T3-L1 preadipocytes into adipocytes. […] (*The culture medium contains 0.4 mM L-arginine and can be converted into 0.4 mM L-ornithine and 0.4 mM urea by arginase, or 0.4 mM L-citrulline by ADI.). Cells grown in culture medium without addition of arginine depleting agents or metabolic products of arginase/ADI served as the control. Lipids in cells were stained with oil red O at 6 days after exposure to specific differentiation-inducing factors added to the medium.
FIG. 24 illustrates that N-ABD094-rhArg (SEQ ID NO: 50) could suppress adipogenic and lipogenic genes in 3T3-L1 preadipocytes. Mouse 3T3-L1 preadipocytes were cultured for 6 days in medium supplemented with specific factors to induce differentiation into adipocytes (differentiated). Cells grown in medium without these factors remained undifferentiated. The medium was added with 2U/mL N-ABD094-rhArg (SEQ ID NO: 50) (rhArg). Cells grown in medium without the addition of N-ABD094-rhArg served as the control. The mRNA expression levels of several crucial (A) transcriptional regulators of adipogenesis, and (B) enzymes in lipogenic pathways were determined by real-time qRT-PCR, and expressed relative to the undifferentiated (control) group, which is set as 1. *P<0.05, one-way ANOVA followed by Fisher's LSD. Data are expressed as mean±SEM, n=3 for each group.
FIG. 25 illustrates the response of 3T3-L1 preadipocytes to various concentrations of arginine Mouse 3T3-L1 preadipocytes were cultured in arginine-free medium with or without addition of varying concentrations of L-arginine for 6 days. Cells cultured in normal arginine-containing medium supplemented with differentiation inducing factors served as the positive (+ve) control of differentiation, while cells cultured in normal arginine-containing medium without supplementation of differentiation inducing factors served as the negative (−Ve) control of differentiation. One group of cells was cultured in normal arginine-containing medium supplemented with differentiation inducing factors and treated with 5U/mL N-ABD094-rhArg (SEQ ID NO: 50) (rhArg) to inhibit differentiation. (A) Cells were stained for lipids with oil red O, and staining intensity was quantified by measuring optical density, which is expressed as the percentage against the +ve control group. (B) The mRNA levels of several crucial lipogenesis related genes are expressed relative to cells cultured in arginine-free medium, which is set as 1. Data are expressed as mean±SEM, n=3 for each group.
To test the effect of N-ABD094-rhArg (SEQ ID NO: 50) on fat cells, mouse 3T3-L1 preadipocytes were used, which are commonly employed as cell-based model for studying adipogenesis [Green and Meuth, 1974, Cell 3:127-133].
On the technique in general: In qPCR the cycle at which signal appears reflects the starting amount.

The nature of data set [4]: Blood pressure by tail cuff method in DIO mice. The settings on record: 600U at 7-day intervals for 5 weeks. The format is in vivo. An excerpt:
Obesity is associated with cardiovascular disease and hypertension. DIO mice treated with 600U N-ABD094-rhArg (SEQ ID NO: 50) at 7-day intervals for 5 weeks were subjected to measurement of blood pressure by tail cuff method using the CODA Non-invasive Blood Pressure System (Kents Scientific Corporation).

B1: N-ABD094-rhArg: albumin binding domain ABD094 fused N-terminally to recombinant human arginase I, SEQ ID NO: 50 (protein)
chain: MHHHHHHDEAVDANSLAEAKEAANAELDSYGVSDFYKRLIDKAKTVEGVEALKDAILAALPSGSNNNNNNGSGGMSAKSRTIGIIGAPFSKGQPRGGVEEGPTVLRKAGLLEKLKEQECDVKDYGDLPFADIPNDSPFQIVKNPRSVGKASEQLAGKVAEVKKNGRISLVLGGDHSLAIGSISGHARVHPDLGVIWVDAHTDINTPLTTTSGNLHGQPVSFLLKELKGKIPDVPGFSWVTPCISAKDIVYIGLRDVDPGEHYILKTLGIKYFSMTEVDRLGIGKVMEETLSYLLGRKKRPIHLSFDVDGLDPSFTPATGTPVVGGLTYREGLYITEEIYKTGLLSGLDIMEVNPSLGKTPEEVTRTVNTAVAITLACFGLAREGNHKPIDYLNPPK
modifications: Mn2+; N-ABD094-rhArg, Synthesized in the Lab
In the case of B1, in data set [1] (12 weeks), the “protection from weight gain and excessive accumulation of WAT” value is reported as “similarly effective”. Moreover, the “insulin sensitivity (ITT) and glucose tolerance (GTT)” value in data set [1] (ITT week 7, GTT week 11) was “improve”. The “average anti-rhArg antibody titer in plasma (ELISA)” value in data set [2] (500U i.p. weekly for 8 months) is 10^8. Further, the “serum ALT, AST, creatinine and urine albumin/creatinine ratio vs vehicle” value in data set [2] (500U weekly for 8 months) is on record as “did not show any significant differences”. Moreover, in data set [2] (500U weekly for 8 months, Biochrom 30 detection limit), the “plasma arginine concentrations throughout the study period” value is under 3 µM. Besides, the “vascular reactivity of isolated arteries (phenylephrine, acetylcholine, sodium nitroprusside) vs vehicle” value in data set [2] (500U weekly for 8 months, wire myography) is “no significant differences”. Moreover, the “effect of anti-drug antibodies on arginase activity” value in data set [2] (plasma incubated with 1,000U/mL drug for 1 hr) is given as “did not have neutralizing effects”. Besides, in data set [3] (2U/mL, 6 days), the “mRNA levels of adipogenic transcription factors and lipogenic enzymes” value is on record as “significantly suppressed”. Besides, in data set [3] (added to culture medium, 6 days of differentiation), the “adipogenesis and lipogenesis in 3T3-L1 cells (oil red O)” value is “effectively inhibit”. Also, in data set [4], the “systolic and diastolic blood pressure and heart rate vs vehicle-treated DIO mice” value was “significantly lower”.

The values are drawn from patent publication US20200181597A1, “Composition and Application of Arginine-depleting Agents for Cancer, Obesity, Metabolic Disorders, and Related Complications and Comorbidities” (THE HONG KONG POLYTECHNIC UNIVERSITY, priority 2018, published 2020).
